According to patent EP4674438A1, “ANTIBODY-DRUG CONJUGATE CONTAINING ANTI-CD138 ANTIBODY” (priority 2023, dated 2024):

T1: human CD138 protein (human, UniProt P18827 23-310)
T1 sequence: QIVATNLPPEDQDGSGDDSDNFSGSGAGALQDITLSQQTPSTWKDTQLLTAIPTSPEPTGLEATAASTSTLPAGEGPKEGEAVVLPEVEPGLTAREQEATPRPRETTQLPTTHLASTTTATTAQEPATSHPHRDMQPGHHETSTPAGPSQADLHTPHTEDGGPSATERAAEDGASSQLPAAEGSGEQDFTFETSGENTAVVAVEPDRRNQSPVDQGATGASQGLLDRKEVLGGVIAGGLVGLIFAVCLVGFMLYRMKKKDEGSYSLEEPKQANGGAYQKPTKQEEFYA


Experiments:
human CD138 protein [1] = target: T1, human CD138 protein; assay: cell-based or functional assay
human CD138 protein [2] = target: T1, human CD138 protein; assay: flow cytometry on AsPC-1 cells, 0.001 to 100 ug/ml, anti-human IgG Fc-APC
human CD138 protein [3] = target: T1, human CD138 protein; assay: flow cytometry on AsPC-1 cells (legend of Figure 1)

Row | Binder | IC50 (ng/ml), cytotoxicity, Capan-1 (CD138-positive), CellTiter-Glo 2.0 (human CD138 protein [1]) | further results
1 | Antibody-drug conjugate 3 (ADC3) (antibody, V domains shown, MC-VC-PAB-MMAE on cysteine sulfhydryls after TCEP reduction of hinge disulfide bonds; positions not given; DAR 7.1) VH: QVQLQQSGSELMMPGASVKISCKATGYTFSNYWIEWVKQRPGHGLEWIGEILPGTGRTIYNEKFKGKATFTADISSNTVQMQLSSLTSEDSAVYYCARRDYYGNFYYAMDYWGQGTLVTVSS VL: DIQMTQSTSSLSASLGDRVTISCSASQGINNYLNWYQQKPDGTVELLIYYTSTLQSGVPSRFSGSGSGTDYSLTISNLEPEDIGTYYCQQYSKLPRTFGGGTKLEIKR | 13 ng/mL | 
2 | Antibody 1 (antibody, V domains shown, expressed in HEK293 cells; Same light chain as Antibody 2 (nBT062); also called anti-CD138 antibody) VH: QVQLQQSGSELMMPGASVKISCKATGYTFSNYWIEWVKQRPGHGLEWIGEILPGTGRTIYNEKFKGKATFTADISSNTVQMQLSSLTSEDSAVYYCARRDYYGNFYYAMDYWGQGTLVTVSS VL: DIQMTQSTSSLSASLGDRVTISCSASQGINNYLNWYQQKPDGTVELLIYYTSTLQSGVPSRFSGSGSGTDYSLTISNLEPEDIGTYYCQQYSKLPRTFGGGTKLEIKR |  | binding result (human CD138 protein [2]): binds
3 | Antibody-drug conjugate 4 (ADC4) (antibody, human IgG1, kappa, V domains shown, MC-VC-PAB-MMAF on cysteine sulfhydryls after TCEP reduction of hinge disulfide bonds; positions not given; DAR 2.2) VH: QVQLQQSGSELMMPGASVKISCKATGYTFSNYWIEWVKQRPGHGLEWIGEILPGTGRTIYNEKFKGKATFTADISSNTVQMQLSSLTSEDSAVYYCARRDYYGNFYYAMDYWGQGTLVTVSS VL: DIQMTQSTSSLSASLGDRVTISCSASQGINNYLNWYQQKPDGTVELLIYYTSTLQSGVPSRFSGSGSGTDYSLTISNLEPEDIGTYYCQQYSKLPRTFGGGTKLEIKR | 165 ng/mL | 
4 | Antibody-drug conjugate 10 (ADC10) (antibody, human IgG1, kappa, L234A L235A, V domains shown, MC-VC-PAB-MMAE on cysteine sulfhydryls after TCEP reduction of hinge disulfide bonds; positions not given; DAR 7.8) VH: QVQLVQSGAEVKKPGSSVKVSCKASGYTFSNYWIEWVRQAPGQGLEWIGEILPGTGRTIYNEKFKGRATFTADESTSTAYMELSSLRSEDTAVYYCARRDYYGNFYYAMDYWGQGTLVTVSS VL: DIQMTQSPSSLSASVGDRVTITCSASQGINNYLNWYQQKPGKAPKLLIYYTSTLQSGVPSRFSGSGSGTDYTLTISSLQPEDFATYYCQQYSKLPRTFGGGTKVEIKR | 29 ng/mL | 
5 | Antibody 5 (antibody, human IgG1, kappa, L234A L235A, V domains shown, Humanized; also called anti-CD138 antibody) VH: QVQLVQSGAEVKKPGSSVKVSCKASGYTFSNYWIEWVRQAPGQGLEWIGEILPGTGRTIYNEKFKGRATFTADESTSTAYMELSSLRSEDTAVYYCARRDYYGNFYYAMDYWGQGTLVTVSS VL: DIQMTQSPSSLSASVGDRVTITCSASQGINNYLNWYQQKPGKAPKLLIYYTSTLQSGVPSRFSGSGSGTDYTLTISSLQPEDFATYYCQQYSKLPRTFGGGTKVEIKR |  | binding result (human CD138 protein [3]): binds
